{
  "source": "paper PMC3017601",
  "about": "(Nucleic Acids Research, 2010)",
  "proteins": {"B1": {"name": "SMG-9 (natural protein)", "chain": "MSESGHSQPGLYGIERRRRWKEPGSGGPQNLSGPGGRERDYIAPWERERRDASEETSTSVMQKTPIILSKPPAERSKQPPPPTAPAAPPAPAPLEKPIVLMKPREEGKGPVAVTGASTPEGTAPPPPAAPAPPKGEKEGQRPTQPVYQIQNRGMGTAAPAAMDPVVGQAKLLPPERMKHSIKLVDDQMNWCDSAIEYLLDQTDVLVVGVLGLQGTGKSMVMSLLSANTPEEDQRTYVFRAQSAEMKERGGNQTSGIDFFITQERIVFLDTQPILSPSILDHLINNDRKLPPEYNLPHTYVEMQSLQIAAFLFTVCHVVIVVQDWFTDLSLYRFLQTAEMVKPSTPSPSHESSSSSGSDEGTEYYPHLVFLQNKARREDFCPRKLRQMHLMIDQLMAHSHLRYKGTLSMLQCNVFPGLPPDFLDSEVNLFLVPFMDSEAESENPPRAGPGSSPLFSLLPGYRGHPSFQSLVSKLRSQVMSMARPQLSHTILTEKNWFHYAARIWDGVRKSSALAEYSRLLA"}},
  "target": "the molecule itself",
  "test": "SEC",
  "data": [
    {"protein": "B1", "values": [
      {"measurement": "stoichiometry N", "result": "~2"}
    ]}
  ]
}
